The text below walks through data of patent publication US8138314B2, “Compositions and methods of monoclonal and polyclonal antibodies specific for T cell subpopulations” (Beth Israel Deaconess Medical Center, Inc., priority 2000, dated 2012).

In assay [1] the test system is CD1d-reactive Vα24^+Vβ11^+ T cell lines. In words: Ex vivo expansion of invariant NK T cell lines with IL-12, stimulation with anti-CD3 and CD161 antibody. The assay is classed as cell-based, human. Particulars: for IFN-γ / IL-4 / Proliferation: plate-bound anti-CD3 and excess CD161 antibody. From the text:
NK T cells, CD1d-reactive T cells, or JαQ^+ T cells may be biased towards Th1-like NK or lymphokine-activated killer (LAK)-like cytotoxicity of invariant T cells, as well as, IFN-γ production to potentially augment their in vivo anti-tumor or anti-pathogen activity.

Assay [2] concerns prostate cancer derived invariant NK T cells. Briefly: IL-12 treatment of prostate cancer derived invariant NK T cells during last week of culture, cytokine ELISA. The format is cell-based, human. The method, then:
Peripheral blood (10-20 ml) was drawn in heparin containing tubes from healthy donors and prostate cancer patients who had given their informed consent. PBMCs were isolated using Ficoll-Paque (Amersham Pharmacia, Uppsala, Sweden). Vα24 positive T cells were stained with an anti-Vα24 monoclonal antibody (C15) (Coulter, Miami, Fla.) followed by a goat anti-mouse IgG (H^+L) FITC conjugate (KPL, Gaithersburg, Md.) and were sorted by high speed FACS (Modular Flow FACS, Cytomation, Boulder, Colo.) (Dellabona et al., J. Exp. Med. 180:1171, 1994). Autologous PBMCs were irradiated (5000 rads) and used as APCs. The FACS purified Vα24^+ cells were initially co-cultured in 96 well flat bottomed plates (approximately 20,000 per well) with equal numbers of autologous irradiated PBMCs in the presence of α-GalCer (50 ng/ml, KRN7000, Kirin Brewery Co., Gunma, Japan) and recombinant IL-2 (100 U/ml) (National Cancer Institute, Bethesda, Md.). […]
In addition to being present at reduced levels, invariant NK T cells have reduced activity in prostate cancer patients. […] Released cytokine levels were determined in triplicates by capture ELISA with matched antibody pairs in relation to cytokine standards (Endogen, Inc. Cambridge, Mass.). […]
As invariant NK T cells may contribute to the anti-tumor effects of IL-12, it was next determined whether these cancer patient derived cells could respond to IL-12. […]
A general note: An ELISA detects its analyte on a solid surface through an enzyme-linked reagent.

Bounds are passed on as bounds.

B1: IL-12: human recombinant IL-12 (Genetics Institute), cytokine biasing T cells towards Th1 responses (protein, UniProt P29459 23-219; P29460 23-328, looked up)
Interleukin-12 subunit alpha: RNLPVATPDPGMFPCLHHSQNLLRAVSNMLQKARQTLEFYPCTSEEIDHEDITKDKTSTVEACLPLELTKNESCLNSRETSFITNGSCLASRKTSFMMALCLSSIYEDLKMYQVEFKTMNAKLLMDPKRQIFLDQNMLAVIDELMQALNFNSETVPQKSSLEEPDFYKTKIKLCILLHAFRIRAVTIDRVMSYLNAS
Interleukin-12 subunit beta: IWELKKDVYVVELDWYPDAPGEMVVLTCDTPEEDGITWTLDQSSEVLGSGKTLTIQVKEFGDAGQYTCHKGGEVLSHSLLLLHKKEDGIWSTDILKDQKEPKNKTFLRCEAKNYSGRFTCWWLTTISTDLTFSVKSSRGSSDPQGVTCGAATLSAERVRGDNKEYEYSVECQEDSACPAAEESLPIEVMVDAVHKLKYENYTSSFFIRDIIKPDPPKNLQLKPLKNSRQVEVSWEYPDTWSTPHSYFSLTFCVQVQGKSKREKKDRVFTDKTSATVICRKNASISVRAQDRYYSSSWSEWASVPCS
Consider B1, for which, in assay [1] (line 1, established with IL-12), the IFN-γ/IL-4 is >100, the IFN-γ is >500, the IL-4 was found to be 4.8 and the Proliferation is 56593. In assay [1] (line 2, established with IL-12), this molecule displayed an IFN-γ/IL-4 of 207, an IFN-γ of 331.8, an IL-4 of 1.6 and a Proliferation of 42499. Also, the IFN-γ production result in assay [2] (1 ng/ml during the last week of culture) is on record as “marked increase in IFN-γ production”. Besides, the “Ratios of IFN-γ/IL-4 production” value in assay [2] (1 ng/ml during the last week of culture (FIG. 22E)) is reported as “comparable to those in the healthy donors”.
